Source: patent US12679870 (US Dept. of Health and Human Services, dated 2026)

Target: T1, HMPV F v3BΔ12 (V84C/A249C, A140C/A147C, substitution of HMPV F positions 89-112 to GSGGSG) (human metapneumovirus, B2 strain …)
T1 construct: That entry starts at K20, has no tags, and differs from the v3-B backbone at positions 185 and 323; also called HMPV F v3B with the L0.1 F1/F2 linker
T1 chain: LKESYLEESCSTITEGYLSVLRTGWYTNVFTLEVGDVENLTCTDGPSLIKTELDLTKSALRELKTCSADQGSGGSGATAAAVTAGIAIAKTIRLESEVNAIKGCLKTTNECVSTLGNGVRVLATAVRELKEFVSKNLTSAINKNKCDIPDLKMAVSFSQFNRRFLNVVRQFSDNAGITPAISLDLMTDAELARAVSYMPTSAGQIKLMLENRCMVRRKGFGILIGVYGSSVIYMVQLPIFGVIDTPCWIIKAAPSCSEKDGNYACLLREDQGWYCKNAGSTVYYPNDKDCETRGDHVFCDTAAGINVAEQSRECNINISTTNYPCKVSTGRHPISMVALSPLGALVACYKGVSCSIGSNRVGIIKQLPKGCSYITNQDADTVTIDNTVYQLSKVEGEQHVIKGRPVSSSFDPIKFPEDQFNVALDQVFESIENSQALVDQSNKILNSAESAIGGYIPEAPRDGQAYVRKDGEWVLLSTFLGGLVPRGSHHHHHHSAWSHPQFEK
Test: antigenic assessment of F1/F2 linker variants, FIG. 13

B1: MPE8 antibody (Fab, V domains shown)
VH: EVQLVESGGGLVKPGGSLRLSCAASGFTFSSYSMNWVRQAPGKGLEWVSSISASSSYSDYADSAKGRFTISRDNAKTSLFLQMNSLRAEDTAIYFCARARATGYSSITPYFDIWGQGTLVTVSS
VL: QSVVTQPPSVSGAPGQRVTISCTGSSSNIGAGYDVHWYQQLPGTAPKLLIYDNNNRPSGVPDRFSASKSGTSASLAITGLQAEDEADYYCQSYDRSLSGVFGTGTKVTVL
notes: The text calls it an antibody; also called prefusion specific antibody MPE8
fold increase in binding compared to v1B: > 10 fold
